Measured values from paper PMC8257661.

Target: JUNV L protein VNN(1177–1179)AAA (Junin virus (JUNV))
Assay: MST

B1: Junin virus (JUNV) Z protein (natural protein)
chain: MGNCNGASKSNQPDSSRVTQPAAEFRRVAHSSLYGRYNCKCCWFADTNLITCNDHYLCLRCHQVMLRNSDLCNICWKPLPTTITVPVEPTAPPP
- Kd: 914 nM
